Laboratory results as given in PMC3039130 (Structure (London, England : 1993), 2011).

Biological target: T1, BirA-tagged, biotinylated mouse JAML ectodomain (Mus musculus, biotin on the BirA-tag (by BirA biotin protein ligase))
T1 chain: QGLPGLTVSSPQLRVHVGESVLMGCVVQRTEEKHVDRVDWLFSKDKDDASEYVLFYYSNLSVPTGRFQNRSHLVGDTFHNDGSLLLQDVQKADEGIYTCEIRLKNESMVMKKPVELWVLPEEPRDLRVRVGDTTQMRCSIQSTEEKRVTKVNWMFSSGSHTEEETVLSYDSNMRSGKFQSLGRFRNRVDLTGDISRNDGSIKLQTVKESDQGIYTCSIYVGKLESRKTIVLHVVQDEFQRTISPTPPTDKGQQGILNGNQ
Experiment: SPR

Kd: ~8 nM | koff: ~0.001 s⁻¹
B1: HL4E10 Fab (fragment of the hamster anti-JAML IgG (λ) HL4E10) (Fab, V domains shown)
VH: QVQLKESGPGLLQPSQTLSLTCTVSGISLSDYGVHWVRQAPGKGLEWMGIIGHAGGTDYNSNLKSRVSISRDTSKSQVFLKLNSLQQEDTAMYFCARHFYTYFDVWGQGIQVTVSS
VL: SYTLTQPPLVSVALGQKATITCSGDKLSDVYVHWYQQKAGQAPVLVIYEDNRRPSGIPDHFSGSNSGNMATLTISKAQAGDEADYYCQSWDGTNSAWVFGSGTKVTVL
